Experimental data as given in publication PMC6300978 (Chemico-biological interactions, 2015).

Assays:
[1] = Chemical inhibition of GA glucuronidation; conditions: GA 2 µM, M2 formation
UGT1A8 = conditions: mycophenolic acid as substrate of UGT1A8; cited from earlier work
[2] = probe reaction for UGT1A1; cited from earlier work
[3] = substrate: CC1(C)C=Cc2c(ccc3c2OC[C@@H](c2ccc(O)cc2O)C3)O1; assay: GA glucuronidation kinetics by recombinant UGT1A10; format: in vitro ADME, human; conditions: other: UGT1A10, M2 formation, substrate inhibition model; pH 7.4
[4] = substrate: CC1(C)C=Cc2c(ccc3c2OC[C@@H](c2ccc(O)cc2O)C3)O1; assay: GA glucuronidation kinetics by recombinant UGT1A3; format: in vitro ADME, human; conditions: other: UGT1A3, M2 formation, Michaelis–Menten; pH 7.4
[5] = substrate: CC1(C)C=Cc2c(ccc3c2OC[C@@H](c2ccc(O)cc2O)C3)O1; assay: GA glucuronidation kinetics by recombinant UGT1A1; format: in vitro ADME, human; conditions: Michaelis–Menten, pH 7.4
[6] = substrate: CC1(C)C=Cc2c(ccc3c2OC[C@@H](c2ccc(O)cc2O)C3)O1; assay: GA glucuronidation by recombinant UGT1A8; format: in vitro ADME, human; conditions: other: UGT1A8, M2 formation, substrate inhibition model; pH 7.4

In the case of `Cc1cn(-c2cc(NC(=O)c3ccc(C)c(Nc4nccc(-c5cccnc5)n4)c3)cc(C(F)(F)F)c2)cn1` [nilotinib], the “remaining GA glucuronidation activity in HIM” value ([1]; inhibitor 1 µM) is reported as “above 85 % of the control”.

For `C=CCc1ccc(O)c(-c2cc(CC=C)ccc2O)c1` [magnolol], the “remaining GA glucuronidation activity in HIM” value ([1]; inhibitor 1 µM) was “above 85 % of the control”.

For `COc1c(C)c2c(c(O)c1C/C=C(\C)CCC(=O)O)C(=O)OC2` [mycophenolic acid], the “remaining GA glucuronidation activity in HIM” value ([1]; inhibitor 10 µM) is listed as 28 % of the control and the Km (UGT1A8) is listed as 1.39 µM.

In the case of `C#C[C@]1(O)CC[C@H]2[C@@H]3CCc4cc(O)ccc4[C@H]3CC[C@@]21C` [ethylestradiol], the “rate of 3-O-glucuronidation by DLM relative to HLM” value [2] is given as 10 fold.

In the case of `OC(Cn1cncn1)(Cn1cncn1)c1ccc(F)cc1F` [fluconazole], the “remaining GA glucuronidation activity in HIM” value ([1]; inhibitor 1 mM (Fig. 6)) is reported as “above 85 % of the control”.

B1: recombinant human UGT1A10 (Homo sapiens) (protein)
chain: GKLLVVPMDGSHWFTMQSVVEKLILRGHEVVVVMPEVSWQLERSLNCTVKTYSTSYTLEDQNREFMVFAHAQWKAQAQSIFSLLMSSSSGFLDLFFSHCRSLFNDRKLVEYLKESSFDAVFLDPFDTCGLIVAKYFSLPSVVFTRGIFCHHLEEGAQCPAPLSYVPNDLLGFSDAMTFKERVWNHIVHLEDHLFCQYLFRNALEIASEILQTPVTAYDLYSHTSIWLLRTDFVLDYPKPVMPNMIFIGGINCHQGKPLPMEFEAYINASGEHGIVVFSLGSMVSEIPEKKAMAIADALGKIPQTVLWRYTGTRPSNLANNTILVKWLPQNDLLGHPMTRAFITHAGSHGVYESICNGVPMVMMPLFGDQMDNAKRMETKGAGVTLNVLEMTSEDLENALKAVINDKSYKENIMRLSSLHKDRPVEPLDLAVFWVEFVMRHKGAPHLRPAAHDLTWYQYHSLDVIGFLLAVVLTVAFITFKCCAYGYRKCLGKKGRVKKAHKSKTH
In the case of B1, the Km [3] is reported as 28 ± 8 µM and the Vmax [3] is reported as 0.5 ± 0.1 nmol/min/mg.

B2: recombinant human UGT1A3 (Homo sapiens) (protein)
chain: GKVLVVPIDGSHWLSMREVLRELHARGHQAVVLTPEVNMHIKEENFFTLTTYAISWTQDEFDRHVLGHTQLYFETEHFLKKFFRSMAMLNNMSLVYHRSCVELLHNEALIRHLNATSFDVVLTDPVNLCAAVLAKYLSIPTVFFLRNIPCDLDFKGTQCPNPSSYIPRLLTTNSDHMTFMQRVKNMLYPLALSYICHAFSAPYASLASELFQREVSVVDILSHASVWLFRGDFVMDYPRPIMPNMVFIGGINCANRKPLSQEFEAYINASGEHGIVVFSLGSMVSEIPEKKAMAIADALGKIPQTVLWRYTGTRPSNLANNTILVKWLPQNDLLGHPMTRAFITHAGSHGVYESICNGVPMVMMPLFGDQMDNAKRMETKGAGVTLNVLEMTSEDLENALKAVINDKSYKENIMRLSSLHKDRPVEPLDLAVFWVEFVMRHKGAPHLRPAAHDLTWYQYHSLDVIGFLLAVVLTVAFITFKCCAYGYRKCLGKKGRVKKAHKSKTH
B2 showed a Km [4] of 11 ± 4 µM and a Vmax [4] of 0.32 ± 0.06 nmol/min/mg.

B3: recombinant human UGT1A1 (Homo sapiens) (protein)
chain: HAGKILLIPVDGSHWLSMLGAIQQLQQRGHEIVVLAPDASLYIRDGAFYTLKTYPVPFQREDVKESFVSLGHNVFENDSFLQRVIKTYKKIKKDSAMLLSGCSHLLHNKELMASLAESSFDVMLTDPFLPCSPIVAQYLSLPTVFFLHALPCSLEFEATQCPNPFSYVPRPLSSHSDHMTFLQRVKNMLIAFSQNFLCDVVYSPYATLASEFLQREVTVQDLLSSASVWLFRSDFVKDYPRPIMPNMVFVGGINCLHQNPLSQEFEAYINASGEHGIVVFSLGSMVSEIPEKKAMAIADALGKIPQTVLWRYTGTRPSNLANNTILVKWLPQNDLLGHPMTRAFITHAGSHGVYESICNGVPMVMMPLFGDQMDNAKRMETKGAGVTLNVLEMTSEDLENALKAVINDKSYKENIMRLSSLHKDRPVEPLDLAVFWVEFVMRHKGAPHLRPAAHDLTWYQYHSLDVIGFLLAVVLTVAFITFKCCAYGYRKCLGKKGRVKKAHKSKTH
B3 showed a Km ([5]; other: UGT1A1, M1 formation) of 7.6 ± 1.8 µM, a Vmax ([5]; other: UGT1A1, M1 formation) of 0.17 ± 0.01 nmol/min/mg and a Km ([5]; other: UGT1A1, M2 formation) of 24 ± 14 µM. It also gave a Vmax ([5]; other: UGT1A1, M2 formation) of 0.11 ± 0.03 nmol/min/mg.

B4: recombinant human UGT1A8 (Homo sapiens) (protein)
chain: GKLLVVPMDGSHWFTMQSVVEKLILRGHEVVVVMPEVSWQLGKSLNCTVKTYSTSYTLEDLDREFMDFADAQWKAQVRSLFSLFLSSSNGFFNLFFSHCRSLFNDRKLVEYLKESSFDAVFLDPFDACGLIVAKYFSLPSVVFARGIACHYLEEGAQCPAPLSYVPRILLGFSDAMTFKERVRNHIMHLEEHLFCQYFSKNALEIASEILQTPVTAYDLYSHTSIWLLRTDFVLDYPKPVMPNMIFIGGINCHQGKPLPMEFEAYINASGEHGIVVFSLGSMVSEIPEKKAMAIADALGKIPQTVLWRYTGTRPSNLANNTILVKWLPQNDLLGHPMTRAFITHAGSHGVYESICNGVPMVMMPLFGDQMDNAKRMETKGAGVTLNVLEMTSEDLENALKAVINDKSYKENIMRLSSLHKDRPVEPLDLAVFWVEFVMRHKGAPHLRPAAHDLTWYQYHSLDVIGFLLAVVLTVAFITFKCCAYGYRKCLGKKGRVKKAHKSKTH
Work on B4 yielded a Km [6] of 64 ± 9 µM and a Vmax [6] of 11 ± 3 nmol/min/mg.
